Measurements taken from US20240059789A1 (Janssen / Centocor, published 2024).

Experiments:
[1] = molecular target: Human CD3 on T cells / Jurkat cells (human, UniProt P07766 23-207); assay: cell-based or functional assay
[2] = molecular target: Human PSMA on prostate cancer cell lines (C4-2B, 22RV1) (human, UniProt Q04609 1-750); assay: cell-based or functional assay
Sequence of Human PSMA on prostate cancer cell lines (C4-2B, 22RV1) (Q04609 whole entry): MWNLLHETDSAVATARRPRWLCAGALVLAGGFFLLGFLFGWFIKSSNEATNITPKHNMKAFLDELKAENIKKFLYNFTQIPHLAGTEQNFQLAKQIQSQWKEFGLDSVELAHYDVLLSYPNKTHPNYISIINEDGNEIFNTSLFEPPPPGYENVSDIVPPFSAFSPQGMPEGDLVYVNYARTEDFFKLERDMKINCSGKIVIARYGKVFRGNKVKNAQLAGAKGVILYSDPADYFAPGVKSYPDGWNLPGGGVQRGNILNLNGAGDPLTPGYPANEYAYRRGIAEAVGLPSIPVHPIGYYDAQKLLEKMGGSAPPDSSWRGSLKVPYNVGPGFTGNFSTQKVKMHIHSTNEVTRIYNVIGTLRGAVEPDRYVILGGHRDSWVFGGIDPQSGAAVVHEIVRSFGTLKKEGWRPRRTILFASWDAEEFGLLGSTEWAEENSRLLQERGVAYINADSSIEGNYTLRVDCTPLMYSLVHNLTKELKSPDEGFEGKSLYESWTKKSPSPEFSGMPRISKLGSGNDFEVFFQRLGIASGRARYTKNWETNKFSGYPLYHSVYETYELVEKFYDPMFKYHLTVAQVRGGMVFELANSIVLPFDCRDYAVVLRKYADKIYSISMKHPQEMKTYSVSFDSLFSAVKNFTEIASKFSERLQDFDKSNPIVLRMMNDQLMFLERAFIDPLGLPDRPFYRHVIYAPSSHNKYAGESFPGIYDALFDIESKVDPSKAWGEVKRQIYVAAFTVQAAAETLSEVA

Sequence of Human CD3 on T cells / Jurkat cells (P07766 23-207 limits assumed): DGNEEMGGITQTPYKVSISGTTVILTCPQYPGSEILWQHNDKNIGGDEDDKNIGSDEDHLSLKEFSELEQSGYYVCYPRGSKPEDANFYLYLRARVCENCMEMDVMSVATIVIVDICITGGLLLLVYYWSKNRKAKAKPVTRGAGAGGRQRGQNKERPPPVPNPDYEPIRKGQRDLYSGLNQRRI

| Binder | T cell activation EC50 [M] (CD25+ T cells, C4-2B co-culture, 72 h) [1] | Tumor killing EC50 [M] (C4-2B + PAN-T cells, 72 h, flow cytometry) [2] |
| --- | --- | --- |
| PS3B919 (bispecific antibody, human IgG1, lambda, L234A L235A) heavy 1: QVQLQQSGPRLVRPSQTLSLTCAISGDSVFNNNAAWSWIRQSPSRGLEWLGRTYYRSKWLYDYAVSVKSRITVNPDTSRNQFTLQLNSVTPEDTALYYCARGYSSSFDYWGQGTLVTVSSASTKGPSVFPLAPSSKSTSGGTAALGCLVKDYFPEPVTVSWNSGALTSGVHTFPAVLQSSGLYSLSSVVTVPSSSLGTQTYICNVNHKPSNTKVDKKVEPKSCDKTHTCPPCPAPEAAGGPSVFLFPPKPKDTLMISRTPEVTCVVVSVSHEDPEVKFNWYVDGVEVHNAKTKPREEQYNSTYRVVSVLTVLHQDWLNGKEYKCKVSNKALPAPIEKTISKAKGQPREPQVYTLPPSREEMTKNQVSLTCLVKGFYPSDIAVEWESNGQPENNYKTTPPVLDSDGSFLLYSKLTVDKSRWQQGNVFSCSVMHEALHNHYTQKSLSLSPG light 1: QSALTQPASVSGSPGQSITISCTGTSSNIGTYKFVSWYQQHPDKAPKVLLYEVSKRPSGVSSRFSGSKSGNTASLTISGLQAEDQADYHCVSYAGSGTLLFGGGTKLTVLGQPKAAPSVTLFPPSSEELQANKATLVCLISDFYPGAVTVAWKADSSPVKAGVETTTPSKQSNNKYAASSYLSLTPEQWKSHRSYSCQVTHEGSTVEKTVAPTECS heavy 2: EVQLVESGGGLVQPGGSLRLSCAASGFTFSSYAMSWVRQAPGKGLEWVSAISGGIGSTYYADSVKGRFTISRDNSKNTLWLQMNSLRAEDTAVYYCAKDGVGATPYYFDYWGQGTLVTVSSASTKGPSVFPLAPSSKSTSGGTAALGCLVKDYFPEPVTVSWNSGALTSGVHTFPAVLQSSGLYSLSSVVTVPSSSLGTQTYICNVNHKPSNTKVDKKVEPKSCDKTHTCPPCPAPEAAGGPSVFLFPPKPKDTLMISRTPEVTCVVVSVSHEDPEVKFNWYVDGVEVHNAKTKPREEQYNSTYRVVSVLTVLHQDWLNGKEYKCKVSNKALPAPIEKTISKAKGQPREPQVYTLPPSREEMTKNQVSLTCLVKGFYPSDIAVEWESNGQPENNYKTTPPVLDSDGSFFLYSRLTVDKSRWQQGNVFSCSVMHEALHNHYTQKSLSLSPG light 2: QSVLTQPPSVSAAPGQKVTISCSGSSSNIGNNYVSWYQQLPGTAPKLLIYDNNKRPSGIPDRFSGSKSGTSATLGITGLQTGDEADYYCGTWDSSLSAYVFGTGTKVTVLGQPKAAPSVTLFPPSSEELQANKATLVCLISDFYPGAVTVAWKADSSPVKAGVETTTPSKQSNNKYAASSYLSLTPEQWKSHRSYSCQVTHEGSTVEKTVAPTECS | 1.87e-10 | 2.1e-10 |
| PS3B912 (bispecific antibody, human IgG1, lambda, L234A L235A) heavy 1: QVQLQQSGPRLVRPSQTLSLTCAISGDSVFNNNAAWSWIRQSPSRGLEWLGRTYYRSKWLYDYAVSVKSRITVNPDTSRNQFTLQLNSVTPEDTALYYCARGYSSSFDYWGQGTLVTVSSASTKGPSVFPLAPSSKSTSGGTAALGCLVKDYFPEPVTVSWNSGALTSGVHTFPAVLQSSGLYSLSSVVTVPSSSLGTQTYICNVNHKPSNTKVDKKVEPKSCDKTHTCPPCPAPEAAGGPSVFLFPPKPKDTLMISRTPEVTCVVVSVSHEDPEVKFNWYVDGVEVHNAKTKPREEQYNSTYRVVSVLTVLHQDWLNGKEYKCKVSNKALPAPIEKTISKAKGQPREPQVYTLPPSREEMTKNQVSLTCLVKGFYPSDIAVEWESNGQPENNYKTTPPVLDSDGSFLLYSKLTVDKSRWQQGNVFSCSVMHEALHNHYTQKSLSLSPG light 1: QSALTQPASVSGSPGQSITISCTGTSSNIGTYKFVSWYQQHPDKAPKVLLYEVSKRPSGVSSRFSGSKSGNTASLTISGLQAEDQADYHCVSYAGSGTLLFGGGTKLTVLGQPKAAPSVTLFPPSSEELQANKATLVCLISDFYPGAVTVAWKADSSPVKAGVETTTPSKQSNNKYAASSYLSLTPEQWKSHRSYSCQVTHEGSTVEKTVAPTECS heavy 2: EVQLVESGGGLVQPGGSLRLSCTASGFIFSSYAMSWVRQAPGKGLEWVSAISGGYGAPYYADTVKGRFTISRDNSKNTLYLQMNSLRAEDTAVYYCAKDGVGATPYYFDDWGQGILVTVSSASTKGPSVFPLAPSSKSTSGGTAALGCLVKDYFPEPVTVSWNSGALTSGVHTFPAVLQSSGLYSLSSVVTVPSSSLGTQTYICNVNHKPSNTKVDKKVEPKSCDKTHTCPPCPAPEAAGGPSVFLFPPKPKDTLMISRTPEVTCVVVSVSHEDPEVKFNWYVDGVEVHNAKTKPREEQYNSTYRVVSVLTVLHQDWLNGKEYKCKVSNKALPAPIEKTISKAKGQPREPQVYTLPPSREEMTKNQVSLTCLVKGFYPSDIAVEWESNGQPENNYKTTPPVLDSDGSFFLYSRLTVDKSRWQQGNVFSCSVMHEALHNHYTQKSLSLSPG light 2: QSVLTQPPSVSAAPGQKVTISCSGSSSNIGNNYVSWYQQLPGTAPKLLIFDNNKRPSGIPDRFSGSKSGTSATLGITGLQTGDEADYYCGTWDSSLSAYVFGTGTKVTVLGQPKAAPSVTLFPPSSEELQANKATLVCLISDFYPGAVTVAWKADSSPVKAGVETTTPSKQSNNKYAASSYLSLTPEQWKSHRSYSCQVTHEGSTVEKTVAPTECS | 4.73e-11 | 6.51e-11 |
| PS3B920 (bispecific antibody, human IgG1, lambda, L234A L235A) heavy 1: QVQLQQSGPRLVRPSQTLSLTCAISGDSVFNNNAAWSWIRQSPSRGLEWLGRTYYRSKWLYDYAVSVKSRITVNPDTSRNQFTLQLNSVTPEDTALYYCARGYSSSFDYWGQGTLVTVSSASTKGPSVFPLAPSSKSTSGGTAALGCLVKDYFPEPVTVSWNSGALTSGVHTFPAVLQSSGLYSLSSVVTVPSSSLGTQTYICNVNHKPSNTKVDKKVEPKSCDKTHTCPPCPAPEAAGGPSVFLFPPKPKDTLMISRTPEVTCVVVSVSHEDPEVKFNWYVDGVEVHNAKTKPREEQYNSTYRVVSVLTVLHQDWLNGKEYKCKVSNKALPAPIEKTISKAKGQPREPQVYTLPPSREEMTKNQVSLTCLVKGFYPSDIAVEWESNGQPENNYKTTPPVLDSDGSFLLYSKLTVDKSRWQQGNVFSCSVMHEALHNHYTQKSLSLSPG light 1: QSALTQPASVSGSPGQSITISCTGTSSNIGTYKFVSWYQQHPDKAPKVLLYEVSKRPSGVSSRFSGSKSGNTASLTISGLQAEDQADYHCVSYAGSGTLLFGGGTKLTVLGQPKAAPSVTLFPPSSEELQANKATLVCLISDFYPGAVTVAWKADSSPVKAGVETTTPSKQSNNKYAASSYLSLTPEQWKSHRSYSCQVTHEGSTVEKTVAPTECS heavy 2: EVQLVESGGGLVQPGGSLRLSCAASGFTFSSYAMSWVRQAPGKGLEWVSAISGGSGSTYYADSVKGRFTISRDNSKNTLYLQMNSLRAEDSAVYYCAKDGVGATPYYFDYWGQGTLVTVSSASTKGPSVFPLAPSSKSTSGGTAALGCLVKDYFPEPVTVSWNSGALTSGVHTFPAVLQSSGLYSLSSVVTVPSSSLGTQTYICNVNHKPSNTKVDKKVEPKSCDKTHTCPPCPAPEAAGGPSVFLFPPKPKDTLMISRTPEVTCVVVSVSHEDPEVKFNWYVDGVEVHNAKTKPREEQYNSTYRVVSVLTVLHQDWLNGKEYKCKVSNKALPAPIEKTISKAKGQPREPQVYTLPPSREEMTKNQVSLTCLVKGFYPSDIAVEWESNGQPENNYKTTPPVLDSDGSFFLYSRLTVDKSRWQQGNVFSCSVMHEALHNHYTQKSLSLSPG light 2: QSVLTQPPSVSAAPGQKVTISCSGSSSNIGNNYVSWYQQLPGTAPKLLIYDNNKRPSGIPDRFSGSKSGTSATLGITGLQTGDEADYYCGTWDSSLSAYVFGTGTKVTVLGQPKAAPSVTLFPPSSEELQANKATLVCLISDFYPGAVTVAWKADSSPVKAGVETTTPSKQSNNKYAASSYLSLTPEQWKSHRSYSCQVTHEGSTVEKTVAPTECS | 1.77e-09 | 3.2e-09 |
| PS3B930 (bispecific antibody, human IgG1, kappa, lambda, L234A L235A) heavy 1: EVQLVESGGGLVKPGGSLRLSCAASGFTFSRYNMNWVRQAPGKGLEWVSSISTSSNYIYYADSVKGRFTFSRDNAKNSLDLQMSGLRAEDTAIYYCTRGWGPFDYWGQGTLVTVSSASTKGPSVFPLAPSSKSTSGGTAALGCLVKDYFPEPVTVSWNSGALTSGVHTFPAVLQSSGLYSLSSVVTVPSSSLGTQTYICNVNHKPSNTKVDKKVEPKSCDKTHTCPPCPAPEAAGGPSVFLFPPKPKDTLMISRTPEVTCVVVSVSHEDPEVKFNWYVDGVEVHNAKTKPREEQYNSTYRVVSVLTVLHQDWLNGKEYKCKVSNKALPAPIEKTISKAKGQPREPQVYTLPPSREEMTKNQVSLTCLVKGFYPSDIAVEWESNGQPENNYKTTPPVLDSDGSFLLYSKLTVDKSRWQQGNVFSCSVMHEALHNHYTQKSLSLSP light 1: DIQMTQSPSSLSASVGDRVTITCRARQSIGTAIHWYQQKPGKAPKLLIKYASESISGVPSRFSGSGSGTDFTLTISSLQPEDFATYYCQQSGSWPYTFGQGTKLEIKRTVAAPSVFIFPPSDEQLKSGTASVVCLLNNFYPREAKVQWKVDNALQSGNSQESVTEQDSKDSTYSLSSTLTLSKADYEKHKVYACEVTHQGLSSPVTKSFNRGEC heavy 2: EVQLVESGGGLVKPGGSLRLSCAASGFTFSRYNMNWVRQAPGKGLEWVSSINSNSRYIYYADSVKGRFTISRDSAKNSLYLQMNSLRAEDTAVYYCAKTMGDYYYYYGMDVWGQGTTVTVSSASTKGPSVFPLAPSSKSTSGGTAALGCLVKDYFPEPVTVSWNSGALTSGVHTFPAVLQSSGLYSLSSVVTVPSSSLGTQTYICNVNHKPSNTKVDKKVEPKSCDKTHTCPPCPAPEAAGGPSVFLFPPKPKDTLMISRTPEVTCVVVSVSHEDPEVKFNWYVDGVEVHNAKTKPREEQYNSTYRVVSVLTVLHQDWLNGKEYKCKVSNKALPAPIEKTISKAKGQPREPQVYTLPPSREEMTKNQVSLTCLVKGFYPSDIAVEWESNGQPENNYKTTPPVLDSDGSFFLYSRLTVDKSRWQQGNVFSCSVMHEALHNHYTQKSLSLSPG light 2: QSVLTQPPSVSGAPGQRVTISCTGSSFNLGAGYDVHWYQQVPGTVPKLLIYDNSNRPSGVPDRFSGSKSGTSASLAITGLQAEDETVYYCQSYDSSLSGVVFGGGTKLTVLGQPKAAPSVTLFPPSSEELQANKATLVCLISDFYPGAVTVAWKADSSPVKAGVETTTPSKQSNNKYAASSYLSLTPEQWKSHRSYSCQVTHEGSTVEKTVAPTECS | 2.4e-12 |  |
